Among the data in patent US20170137467A1 (CHROMOTEK, published 2017) are ratio values, retold here.

What all share (assay): peptide library pulldown on immobilized Nb, LC-MS of supernatant; ratio vs GFP-Nb control (1 = not captured, 0 = captured)
Assay [1] has as its target T1, BC2T H9M library peptide (human).
T1 peptide: Ac-PDRKAAVSMWQQ-NH2
Summed up:
(§1)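 Unbound peptide left in supernatant after 1 h pulldown in PBS/0.01% CHAPS measured by reversed-phase LC-MS (8–30% eluent B gradient, 20 min).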

Assay [2] concerns the target T2, BC2T Q12F library peptide (human).
T2 peptide: Ac-PDRKAAVSHWQF-NH2
A digest of the protocol: as §1

Assay [3] deals with T3, BC2T Q12R library peptide (human).
T3 peptide: Ac-PDRKAAVSHWQR-NH2
Summed up:
as §1

Assay [4] concerns the target T4, BC2T S8D library peptide (human).
T4 construct: also called BC2TS8X: D
T4 peptide: Ac-PDRKAAVDHWQQ-NH2
Summed up:
as §1

Assay [5] deals with T5, BC2T Q11V library peptide (human).
T5 peptide: Ac-PDRKAAVSHWVQ-NH2
Summed up:
as §1

Assay [6] has as its target T6, BC2T Q12K library peptide (human).
T6 peptide: Ac-PDRKAAVSHWQK-NH2
Summed up:
as §1

The target in assay [7] is T7, BC2T S8C* library peptide (human, also: Abu described as gamma-amino butyric acid).
T7 construct: also called BC2TS8X: C*; C(Abu)
T7 peptide: Ac-PDRKAAV[GABA]HWQQ-NH2
A digest of the protocol: as §1

The target of assay [8] is T8, BC2T W10(I/L) library peptide, version 2 (N-terminal acetyl, C-terminal amide).
T8 construct: Ile and Leu versions are isobaric; two versions resolved but not assigned; also called BC2TW10X: I/L2
Summed up:
as §1

The target of assay [9] is T9, BC2T H9F library peptide (human).
T9 peptide: Ac-PDRKAAVSFWQQ-NH2
A digest of the protocol:
as §1

The target in assay [10] is T10, BC2T S8F library peptide (human).
T10 construct: also called BC2TS8X: F
T10 peptide: Ac-PDRKAAVFHWQQ-NH2
Summed up: as §1

Assay [11] addresses T11, BC2T S8P library peptide (human).
T11 construct: also called BC2TS8X: P
T11 peptide: Ac-PDRKAAVPHWQQ-NH2
A digest of the protocol: as §1

In assay [12] the target is T12, BC2T H9E library peptide (human).
T12 peptide: Ac-PDRKAAVSEWQQ-NH2
Summed up: as §1

Assay [13] has as its target T13, BC2T Q12W library peptide (human).
T13 peptide: Ac-PDRKAAVSHWQW-NH2
A digest of the protocol:
as §1

Assay [14] deals with T14, BC2T Q12G library peptide (human).
T14 peptide: Ac-PDRKAAVSHWQG-NH2
A digest of the protocol:
as §1

For assay [15], the target named is T15, BC2T H9V library peptide (human).
T15 peptide: Ac-PDRKAAVSVWQQ-NH2
Summed up: as §1

Assay [16] deals with T16, BC2T W10N library peptide (human).
T16 construct: also called BC2TW10X: N
T16 peptide: Ac-PDRKAAVSHNQQ-NH2
Summed up:
as §1

In assay [17] the target is T17, BC2T W10R library peptide (human).
T17 construct: also called BC2TW10X: R
T17 peptide: Ac-PDRKAAVSHRQQ-NH2
A digest of the protocol:
as §1

In assay [18] the target is T18, BC2T W10Q library peptide (human).
T18 construct: also called BC2TW10X: Q
T18 peptide: Ac-PDRKAAVSHQQQ-NH2
Summed up:
as §1

For assay [19], the target named is T19, BC2T Q12Y library peptide (human).
T19 peptide: Ac-PDRKAAVSHWQY-NH2
A digest of the protocol: as §1

Assay [20] addresses T20, BC2T Q12C* library peptide (human, SMILES …).
T20 construct: also called C(Abu)
T20 peptide: Ac-PDRKAAVSHWQ[GABA]-NH2
Summed up:
as §1

Square brackets hold non-standard residues; d marks the D form. GABA = NCCCC(=O)O

B1: BC2-Nb(R106E) (VHH)
VHH: QVQLVESGGGLVQPGGSLTLSCTASGFTLDHYDIGWFRQAPGKEREGVSCINNSDDDTYYADSVKGRFTIFMDNAKDTVYLQMNSLKPEDTAIYYCAEARGCKRGEYEYDFWGQGTQVTVSS
notes: Headlock mutant; immobilized on beads in the library pulldown
Take B1: the ratio in [1] was 0.2; in [2] it was 0.3; in assay [3], 0; in assay [4] it was 1; in [5] it was 0.2; in [6] it was 0. The ratio in [7] was found to be 0.1; in assay [8], 1; in assay [9] it was 0.2; in assay [10], 0.9; in [11], 1; in [12], 0.5. The ratio turned out to be 0.2 in assay [13]; 0.2 in assay [14]; 0.5 in assay [15]; 1.2 in assay [16]; 1.3 in [17]; 1.2 in assay [18]. Moreover, the ratio was 0.2 in assay [19] and 0.1 in assay [20].
